Laboratory results as given in patent publication US20220403001A1, “PDE5 DERIVED REGULATORY CONSTRUCTS AND METHODS OF USE IN IMMUNOTHERAPY” (Obsidian Therapeutics, Inc., priority 2018, published 2022).

What was measured:
hPDE5 mutants [1] = biological target: T1, hPDE5 mutants (Homo sapiens, UniProt O76074); test: Western blot of AcGFP/GFP protein levels in HCT 116 cells expressing hPDE5 mutants; format: cell-based; set-up: GFP protein levels (western blot); fused on or other part: AcGFP reporter through a linker; details: vardenafil vs DMSO, HCT 116, R732 mutants
Experimental: Protein expression analysis of the combination mutants was performed in parallel via western blot. […] GAPDH levels were also analyzed to ensure even protein loading.

hPDE5 mutants [2] = test: GFP MFI by FACS in HCT116 cells transduced with hPDE5 constructs; format: cell-based, human; details: hotspot constructs; for Sildenafil Destabilizing mutation coefficient: DMSO control of Sildenafil; for Sildenafil Destabilizing mutation coefficient / Vardenafil Destabilizing mutation coefficient: vs OT-001075; for Vardenafil Destabilizing mutation coefficient: DMSO control of Vardenafil; for GFP by FACS, Sildenafil 0 μM (DMSO): HCT116, DMSO control of Sildenafil; for GFP by FACS, Vardenafil 0 μM (DMSO): HCT116, DMSO control of Vardenafil
hPDE5 mutants [3] = biological target: T1, hPDE5 mutants; test: as above; format: cell-based; details: hotspot constructs; for Vardenafil Stabilization ratio: 1 μM Vardenafil; for Sildenafil Stabilization ratio: 10 μM Sildenafil; for GFP by FACS, Sildenafil 10 μM / GFP by FACS, Vardenafil 1 μM: HCT116

GFP protein levels (western blot) (hPDE5 mutants [1]) | Vardenafil Stabilization ratio (hPDE5 mutants [3]) | Sildenafil Stabilization ratio (hPDE5 mutants [3]) | GFP by FACS, Sildenafil 10 μM (hPDE5 mutants [3]) | GFP by FACS, Vardenafil 1 μM (hPDE5 mutants [3]) | Substance | Sildenafil Destabilizing mutation coefficient (hPDE5 mutants [2]) | Vardenafil Destabilizing mutation coefficient (hPDE5 mutants [2]) | GFP by FACS, Sildenafil 0 μM (DMSO) (hPDE5 mutants [2]) | GFP by FACS, Vardenafil 0 μM (DMSO) (hPDE5 mutants [2])
strong stabilization of GFP levels | 0.77 | 1.07 | 316 | 212 | OT-001199: hPDE5 R732E AcGFP construct | 0.3 | 1.71 | 295 | 276
strong stabilization of GFP levels | 0.95 | 1.57 | 553 | 289 | OT-001200: hPDE5 R732Q AcGFP construct | 0.36 | 1.89 | 353 | 305
strong stabilization of GFP levels | 0.93 | 1.64 | 516 | 290 | OT-001201: hPDE5 R732N AcGFP construct | 0.32 | 1.94 | 315 | 313
strong stabilization of GFP levels | 1.07 | 1.76 | 503 | 337 | OT-001202: hPDE5 R732M AcGFP construct | 0.29 | 1.96 | 285 | 316
strong stabilization of GFP levels | 0.66 | 1.42 | 707 | 349 | OT-001203: hPDE5 R732C AcGFP construct | 0.5 | 3.27 | 499 | 526

Substance | GFP protein levels (western blot) (hPDE5 mutants [1]) | Vardenafil Stabilization ratio (hPDE5 mutants [3]) | Sildenafil Stabilization ratio (hPDE5 mutants [3]) | GFP by FACS, Sildenafil 10 μM (hPDE5 mutants [3]) | GFP by FACS, Vardenafil 1 μM (hPDE5 mutants [3]) | Sildenafil Destabilizing mutation coefficient (hPDE5 mutants [2]) | Vardenafil Destabilizing mutation coefficient (hPDE5 mutants [2]) | GFP by FACS, Sildenafil 0 μM (DMSO) (hPDE5 mutants [2]) | GFP by FACS, Vardenafil 0 μM (DMSO) (hPDE5 mutants [2])
OT-001204: hPDE5 R732K AcGFP construct | Modest ligand dependent stabilization of GFP levels | 3.74 | 4.64 | 765 | 423 | 0.17 | 0.7 | 165 | 113
